Results: patent CN112062844A (SHANDONG BOAN BIOTECHNOLOGY CO LTD, dated 2020)

Legend:
[1] = target: T1, ANGPTL3蛋白(10770-H08B，义翘神州) (UniProt Q9Y5C1 17-460); experiment: cell-based or functional assay
T1 sequence (looked up): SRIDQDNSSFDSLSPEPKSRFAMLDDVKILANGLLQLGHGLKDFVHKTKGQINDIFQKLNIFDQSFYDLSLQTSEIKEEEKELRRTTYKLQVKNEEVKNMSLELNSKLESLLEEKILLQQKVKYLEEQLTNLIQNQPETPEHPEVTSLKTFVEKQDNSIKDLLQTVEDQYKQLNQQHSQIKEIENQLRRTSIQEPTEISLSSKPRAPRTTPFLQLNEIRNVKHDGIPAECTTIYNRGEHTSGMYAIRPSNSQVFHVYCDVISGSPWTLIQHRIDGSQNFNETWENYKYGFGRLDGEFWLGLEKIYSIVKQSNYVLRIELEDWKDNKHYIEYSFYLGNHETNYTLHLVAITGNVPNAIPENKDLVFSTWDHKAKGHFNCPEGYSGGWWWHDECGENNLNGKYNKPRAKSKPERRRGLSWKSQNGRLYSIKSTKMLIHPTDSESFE

[2] = target: T1, ANGPTL3蛋白(10770-H08B，义翘神州); experiment: ELISA, ANGPTL3 coated at graded concentrations (0.2-0 μg/mL), antibody 1 μg/mL, OD450
[3] = target: T1, ANGPTL3蛋白(10770-H08B，义翘神州); experiment: SPR, BIAcore 8K, antibody captured by anti-human IgG Fc on CM5, ANGPTL3 as analyte, 1:1 model

酶活检测EC50 (LPL, DGGR底物, 荧光值) [1]: 95.1 µg/mL
EC50 [2]: 0.162 µg/mL
Kd [3]: 0.452 nM
koff [3]: 0.000275 s⁻¹
kon [3]: 609000 M⁻¹ s⁻¹
B1: AP-REGN-IgG4 (antibody, V domains shown)
VH: EVQLVESGGGVIQPGGSLRLSCAASGFTFDDYAMNWVRQGPGKGLEWVSAISGDGGSTYYADSVKGRFTISRDNSKNSLYLQMNSLRAEDTAFFYCAKDLRNTIFGVVIPDAFDIWGQGTMVTVSS
VL: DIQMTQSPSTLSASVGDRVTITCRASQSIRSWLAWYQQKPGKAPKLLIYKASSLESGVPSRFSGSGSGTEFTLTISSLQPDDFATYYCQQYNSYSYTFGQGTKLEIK
notes: IgG4 by its name; also called Evinacumab; evinacumab
